In patent US7871610B2, “Antibodies to Tie1 ectodomain” (Dyax Corp., priority 2003, dated 2011):
“Also recorded” adds a separate entry of the source.

T1: Tie1-EpoR chimeric receptor (UniProt P14753+P35590)
T1 construct: the PCR amplified extracellular part of human Tie1 (bp 37-2316 of X60975); expressed in transfected cells
T1 sequence (P35590+P14753 with tags, fused parts or gaps): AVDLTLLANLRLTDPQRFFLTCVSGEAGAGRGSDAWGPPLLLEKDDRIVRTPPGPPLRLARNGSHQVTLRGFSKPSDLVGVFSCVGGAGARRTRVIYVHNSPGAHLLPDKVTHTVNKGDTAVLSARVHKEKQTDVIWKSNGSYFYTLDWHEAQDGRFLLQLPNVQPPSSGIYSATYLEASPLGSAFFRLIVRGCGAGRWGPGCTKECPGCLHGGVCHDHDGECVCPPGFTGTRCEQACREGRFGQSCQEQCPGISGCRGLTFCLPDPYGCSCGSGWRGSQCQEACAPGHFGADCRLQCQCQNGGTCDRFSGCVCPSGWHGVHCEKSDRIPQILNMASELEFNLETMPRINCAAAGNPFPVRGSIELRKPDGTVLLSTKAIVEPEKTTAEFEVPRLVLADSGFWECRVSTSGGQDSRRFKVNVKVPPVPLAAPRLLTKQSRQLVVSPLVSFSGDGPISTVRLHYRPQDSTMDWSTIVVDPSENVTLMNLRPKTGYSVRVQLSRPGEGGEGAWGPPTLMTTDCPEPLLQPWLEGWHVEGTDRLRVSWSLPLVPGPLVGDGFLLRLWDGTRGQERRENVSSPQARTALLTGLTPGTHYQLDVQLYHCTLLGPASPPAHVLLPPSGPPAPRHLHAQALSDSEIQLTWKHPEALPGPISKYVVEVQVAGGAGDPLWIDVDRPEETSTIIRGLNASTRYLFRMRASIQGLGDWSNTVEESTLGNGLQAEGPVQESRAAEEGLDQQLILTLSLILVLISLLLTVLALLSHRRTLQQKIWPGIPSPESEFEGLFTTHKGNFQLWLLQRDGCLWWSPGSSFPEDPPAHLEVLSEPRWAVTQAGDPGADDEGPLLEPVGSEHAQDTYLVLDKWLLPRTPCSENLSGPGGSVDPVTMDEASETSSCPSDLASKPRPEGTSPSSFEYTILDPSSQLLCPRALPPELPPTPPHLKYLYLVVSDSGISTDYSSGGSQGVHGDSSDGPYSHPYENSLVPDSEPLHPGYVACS


Columns and labels:
[1] = biological target: T1, Tie1-EpoR chimeric receptor; test: Ba/F3 bioassay (Tie1/EpoR chimeric BaF3 cell assay), MTT viability; assay type: cell-based, human; conditions: 100 ng/ml E3 IgG together with 100 (1:1) or 500 (1:5) ng/ml of the other antibody
Text: To generate Tie1-EpoR expressing Ba/F3 cells for the bioassay, Ba/F3 pre-B cells were stably transfected with a nucleic acid that expresses chimeric receptor containing the extracellular domain of human Tie1 fused with the transmembrane and cytoplasmic domains of the mouse erythropoietin receptor. The nucleic acid used was a Tie1-EpoR chimeric cDNA in a pEF-BOS expression vector. The nucleic acid encoding the chimeric receptor was constructed by cloning the PCR amplified extracellular part of human Tie1 (bp 37-2316 of X60975) as EcoRI-BglII fragment into mEpoR-pcDNA vector. The cDNA encoding for the chimeric receptor consisting of the extracellular part of Tie1 fused with the transmembrane and intracellular domains of EpoR was subcloned into the pEF-BOS expression vector. Vector was linearized and co-transfected into Ba/F3 cells with pcDNA3.1(+) Zeo vector (Invitrogen). Stable cell pools were generated by selection with 250 μg/ml Zeocin. The expression of Tie1/EpoR fusion protein in several clones was analyzed by Western blotting with an antibody against EpoR.
To perform the assays, Ba/F3 cells expressing the Tie 1-EpoR chimera were split in 96-well microtiter plates at 50 000 cells/well in the presence of the indicated concentrations of anti-Tie1 antibodies. As controls, Zeocin resistant pools not expressing the Tie1-EpoR were used. After 48 h, the viability of the cells was determined by adding MTT (3-(4,5-dimethylthiazol-2-yl)-2,5-diphenyl tetrazolium bromide (Sigma), 0.5 mg/ml), followed by further 2 h of culture, addition of an equal volume of cell lysis solution (10% SDS, 10 mM HCl) and incubation overnight at 37° C. Absorbance was measured at 540 nm.
Although no ligand for Tie1 has been identified, we used the following efficient screening method for Tie1-binding proteins. Interleukin-3 dependent pre-B-lymphocyte (Ba/F3) cells were transfected with a construct that expresses a Tie1-EpoR fusion protein. Since Ba/F3 cells are IL-3 dependent, they die unless IL-3 is provided. However, Tie-EpoR receptor expressing Ba/F3 cells can survive and proliferate if the medium contains a Tie1-binding protein, either a natural ligand or an artificial mimetic. Cell survival can be quantitated, e.g., by colorimetric MTT-assay, which measures mitochondrial activity.

[2] = biological target: Tie1 (Homo sapiens, UniProt P35590); test: Immunohistochemistry of matched human tumor and normal tissue sections; parameters: from tissue; host or cells: fresh frozen normal and tumor tissue (e.g. lung, kidney, skin, breast); conditions: fresh frozen tissue
Description: The Tie-1 antibodies were biotinylated using the EZ-link Sulfo-NHS-SS-Biotin (Pierce, Cat. 21331). For Tie-1/Fc and Tie-1-His, the reaction was performed for 2 hours on ice in 50 mM sodium carbonate buffer, pH 9.6, in the presence of a 5-fold molar excess of biotinylating agent. For the antibodies, the reaction was performed for 2 hours on ice in PBS, in the presence of a 15-fold molar excess of EZ-link Sulfo-NHS-SS-Biotin. The reaction was stopped by the addition of Tris-HCl, pH 7.5 (50 mM final concentration) followed by a 1-hour incubation on ice. Samples were then dialyzed against PBS.
Various normal and tumor tissue sections were stained with biotinylated antibodies. A mouse monoclonal anti-Tie1 antibody (7e8) (Alitalo laboratory, University of Helsinki) was used as a positive control. Sections without primary antibody served as negative control. All samples were fresh frozen tissues and staining was performed with the TSA-kit (Perkin-Elmer Life Sciences). After acetone fixation (10-20 min, −20° C.) the slides were treated with 0.73% H2O2 for 10 min to reduce endogenous peroxidase activity followed by blocking for 30 min with TNB buffer. Sections ([…] thick) were incubated with primary antibodies (10 μg/ml) overnight at 4° C. Sections with the mouse monoclonal anti-tie1 antibody (7e8) were treated with biotinylated anti-mouse antibodies (VectaStain) before the addition of streptavidin-HRP. Signal was amplified by using a TSA kit and the visualized by AEC (235 ml NaAc, 15 ml AEC (stock solution: 1600 mg 3-amino-9-ethyl-carbazole and 480 ml N-dimethylformamide), 250 μl H2O2).

Chain of Tie1 (P35590 22-1138): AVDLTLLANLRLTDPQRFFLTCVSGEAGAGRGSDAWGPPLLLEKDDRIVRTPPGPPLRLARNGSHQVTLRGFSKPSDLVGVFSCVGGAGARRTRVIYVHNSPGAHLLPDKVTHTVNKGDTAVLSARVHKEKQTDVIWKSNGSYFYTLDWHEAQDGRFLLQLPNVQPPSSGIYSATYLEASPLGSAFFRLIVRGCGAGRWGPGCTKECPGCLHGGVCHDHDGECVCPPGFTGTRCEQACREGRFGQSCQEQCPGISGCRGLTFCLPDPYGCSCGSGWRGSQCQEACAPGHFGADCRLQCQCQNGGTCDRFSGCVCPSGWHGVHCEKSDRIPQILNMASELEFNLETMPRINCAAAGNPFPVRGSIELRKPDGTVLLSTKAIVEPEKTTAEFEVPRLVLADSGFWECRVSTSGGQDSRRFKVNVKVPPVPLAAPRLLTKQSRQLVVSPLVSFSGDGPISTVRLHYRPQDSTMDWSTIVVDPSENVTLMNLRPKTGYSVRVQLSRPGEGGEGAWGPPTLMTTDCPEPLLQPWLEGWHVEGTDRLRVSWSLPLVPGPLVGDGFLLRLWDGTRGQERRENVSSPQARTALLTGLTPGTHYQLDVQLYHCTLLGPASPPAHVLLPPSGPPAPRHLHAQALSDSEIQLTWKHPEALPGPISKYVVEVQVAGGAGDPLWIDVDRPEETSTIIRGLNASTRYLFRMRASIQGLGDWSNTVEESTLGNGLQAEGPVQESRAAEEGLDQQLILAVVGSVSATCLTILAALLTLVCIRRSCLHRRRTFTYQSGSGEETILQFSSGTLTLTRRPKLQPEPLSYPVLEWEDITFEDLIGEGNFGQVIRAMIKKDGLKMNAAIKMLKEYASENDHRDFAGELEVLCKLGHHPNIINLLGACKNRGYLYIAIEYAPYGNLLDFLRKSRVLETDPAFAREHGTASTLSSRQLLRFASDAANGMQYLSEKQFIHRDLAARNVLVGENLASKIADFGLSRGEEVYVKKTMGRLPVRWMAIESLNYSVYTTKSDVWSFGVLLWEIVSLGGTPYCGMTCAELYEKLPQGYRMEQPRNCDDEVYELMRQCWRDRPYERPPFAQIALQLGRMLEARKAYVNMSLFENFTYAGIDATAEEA

Molecule | effect on the survival effect of E3 IgG in Tie1-EpoR Ba/F3 assay [1] | also measured
A2: anti-Tie1 antibody; VH SEQ ID NO:56, VL SEQ ID NO:58; not the anti-streptavidin A2-SV (antibody, V domains shown, Synthetically generated peptide, anti-Tie1 antibody; not the anti-streptavidin A2-SV) VH: EVQLLESGGGLVQPGGSLRLSCAASGFTFSRYTMMWVRQAPGKGLEWVSGIYPSGGVTLYADSVKGRFTISRDNSKNTLYLQMNSLRAEDTAVYYCARVNYYDSSGYGPIAPGLDYWGQGTLVTVSSASTKGPSVFP VL: HSAQDIQMTQSPGTLSLSPGERATLSCRASRSVIISYVAWYQQKPGQAPRLLIYGASTRATGIPDRFSGSGSGTDFTLTISRLEPEDFAVYFCQLYGRSPRIIFGQGTRLEIK | inhibited the viability effect of E3 IgG to some extent | –
C7: anti-Tie1 antibody; VH SEQ ID NO:76, VL SEQ ID NO:78 (antibody, V domains shown, Synthetically generated peptide) VH: EVQLLESGGGLVQPGGSLRLSCAASGFTFSRYVMYWVRQAPGKGLEWVSVIYPSGGATYYADSVKGRFTISRDNSKNTLYLQMNSLRAEDTAVYYCARRGSSGAFDYWGQGTLVTVSSASTKGPSVFP VL: HSAQSVLTQPASVSGSPGQSITISCTGTSSDIGRYNYASWYQQRPGKSPKLLIYEVSDRPSGVSNRFSGSKSGNTASLIISGLQAEDEADYYCSSYSSTNSLQVVFGGGTKLSVLGQPKAAPSVTLFPPSSEELQANKATLVCL | promoted the survival | –
B2: anti-Tie1 antibody; VH SEQ ID NO:64, VL SEQ ID NO:66 (antibody, V domains shown, Synthetically generated peptide) VH: EVQLLESGGGLVQPGGSLRLSCAASGFTFSIYGMAWVRQAPGKGLEWVSVISPSGGQTFYADSVKGRFTISRDNSKNTLYLQMNSLRAEDTAVYYCARVYYYGMDVWGQGTTVTVSSASTKGPSVFP VL: HSAQDIQMTQSPATLSLSPGERATLSCRASQSVSSYLAWYQQKPGQAPRLLIYDASNRATGIPARFSGSGSETDFTLTISSLEPEDFAVYYCQQRSKWPRTFGQGTKLEIK | completely blocked the viability; also recorded: blocked completely the survival effect of E3 IgG; also recorded: counteract the agonistic activity of E3 | staining of breast carcinoma ([2]; 10 μg/ml): stained also other structures in addition to vessels; staining of kidney ([2]; 10 μg/ml): only very faint staining of either tubules or vessels; staining of lung carcinoma ([2]; 10 μg/ml): stained structures other than vessels; staining of melanoma tissue ([2]; 10 μg/ml): also stained other surrounding structures; staining of normal lung (large veins) ([2]; 10 μg/ml): did not stain the same veins; staining of normal skin ([2]; 10 μg/ml): stained blood vessels very faintly; staining of vessels in normal tissues (tissue specificity) ([2]; biotinylated IgG 10 μg/ml): stained vessels very faintly in other normal tissues than in the breast
P-B3: anti-Tie1 antibody; VH SEQ ID NO:24, VL SEQ ID NO:26 (antibody, V domains shown, Synthetically generated peptide) VH: EVQLLESGGGLVQPGGSLRLSCAASGFTFSRYGMHWVRQAPGKGLEWVSVISPSGGMTYYADSVKGRFTISRDNTKNTLYLQMNSLRAEDTAVYYCARVGATGPFDIWGQGTMVTVSSASTKGPSVFPLAP VL: QDIQMTQSPATLSLSPGERATLSCRASQSVSTYLAWYQQKPGQAPRLLIYDASNRATGIPGRFSGSGSGTDFTLTISSLEAEDFAVYYCQQRSSWPITFGQG | inhibited the viability effect of E3 IgG to some extent | –
P-C6: anti-Tie1 antibody; VH SEQ ID NO:28, VL SEQ ID NO:30 (antibody, V domains shown, Synthetically generated peptide) VH: EVQLLESGGGLVQPGGSLRLSCAASGFTFSHYGMTWVRQAPGKGLEWVSVISPSGGQTGYADSVKGRFTISRDNSKNTLYLQMNSLRAEDTAVYYCAGGGYAAFDYWGQGTLVTVSSASTKGPSVFPLAPSSKSTSGGTAALG VL: QDIQMTQSPATLSLSPGERATLSCRASQSVSSYLAWYQQKPGQAPRLLIYDASNRATGIPARFSGSGSGTDFTLTISSLEPEDFAVYYCQQRSNWPLTFGGG | inhibited the viability effect of E3 IgG to some extent | –
A10: anti-Tie1 antibody; VH SEQ ID NO:60, VL SEQ ID NO:62 (antibody, V domains shown, Synthetically generated peptide) VH: EVQLLESGGGLVQPGGSLRLSCAASGFTFSNYVMVWVRQAPGKGLEWVSGIYPSGGHTKYADSVKGRFTISRDNSKNTLYLQMNSLRAEDTAVYYCARVNYYDSSGYGPIAPGLDYWGQGTLV VL: HSAQDIQMTQSPGTLSLSPGERATLFCRASQRVTSNSLAWYQQRPGQAPRLLIYDASTRATGIPDRFSGSGSGRDFTLTISRLEPEDFAVYYCQRYGSSVLYSFGQGTKLEIT | inhibited the viability effect of E3 IgG to some extent | –
G2: anti-Tie1 antibody; HC SEQ ID NO:110, LC SEQ ID NO:112 (antibody, Synthetically generated peptide) heavy: EVQLLESGGGLVQPGGSLRLSCAASGFTFSSYKMGWVRQAPGRGLEWVSSIYPSGGWTHYADSVKGRFTISRDNSKNTLYLQMNSLRAEDTAVYYCARVLLHYFDYWGQGTLVTVSSASTKGPSVFPLAPSSKSTSGAQRPWAAWSRTTSRDTGDGV light: QSVLTQPASVSGSPGQSITISCTGTSSDVGGYKYVSWYQQHPGKAPKLIISDVNNRPSGVSDRFSGSKSGNTASLTISGLQAEDDGDYYCSSYASSSYTSSTTWVFGG | promoted the survival | –
